Assay results as given in the supplement of paper PMC9112550, “Optimization of the antimicrobial peptide Bac7 by deep mutational scanning” (BMC Biology, 2022).

The sequences below were run on Escherichia coli TOP10 (assay: shrunken log2 fold change of peptide-encoding DNA abundance (4.5 h post-induction vs induction); higher = less antimicrobial activity (less host growth inhibition)). Details: time post-induction: 4.5 h; library: site-saturation at positions 5, 18, 19, 20.
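Further: peptides expressed intracellularly from a pBAD plasmid library in pooled LB shake-flask culture, induced with 0.3% L-arabinose, DNA abundance read by NGS, three biological replicates, DESeq2 with apeglm shrinkage.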

| Sequence | shrunken log2 fold change |
| --- | --- |
| RRIRFRPPRLPRPRPRPCFAPRP | 0.153 |
| RRIRFRPPRLPRPRPRPCFCPRP | -0.453 |
| RRIRFRPPRLPRPRPRPCGGPRP | 0.12 |
| RRIRFRPPRLPRPRPRPCGQPRP | 0.151 |
| RRIRFRPPRLPRPRPRPCHCPRP | -0.0994 |
| RRIRFRPPRLPRPRPRPCHGPRP | -1.45 |
| RRIRFRPPRLPRPRPRPCICPRP | -0.136 |
| RRIRFRPPRLPRPRPRPCIGPRP | -0.1 |
| RRIRFRPPRLPRPRPRPCLYPRP | -0.881 |
| RRIRFRPPRLPRPRPRPCMNPRP | 0.0346 |
| RRIRFRPPRLPRPRPRPCNAPRP | -0.23 |
| RRIRFRPPRLPRPRPRPCPRPRP | 0.0155 |
| RRIRFRPPRLPRPRPRPCQAPRP | -0.0302 |
| RRIRFRPPRLPRPRPRPCSAPRP | -0.103 |
| RRIRFRPPRLPRPRPRPCTNPRP | -0.598 |
| RRIRFRPPRLPRPRPRPCTRPRP | 0.0381 |
| RRIRFRPPRLPRPRPRPCWFPRP | -0.509 |
| RRIRFRPPRLPRPRPRPCWGPRP | 0.00445 |
| RRIRFRPPRLPRPRPRPCWIPRP | -0.354 |
| RRIRFRPPRLPRPRPRPCWYPRP | -0.225 |
| RRIRFRPPRLPRPRPRPDAHPRP | -0.0702 |
| RRIRFRPPRLPRPRPRPDCQPRP | 0.0422 |
| RRIRFRPPRLPRPRPRPDCWPRP | -0.0344 |
| RRIRFRPPRLPRPRPRPDDRPRP | 0.00835 |
| RRIRFRPPRLPRPRPRPDEMPRP | -0.0134 |

| Sequence | shrunken log2 fold change |
| --- | --- |
| RRIRFRPPRLPRPRPRPDFEPRP | 0.0453 |
| RRIRFRPPRLPRPRPRPDGEPRP | 0.0232 |
| RRIRFRPPRLPRPRPRPDHGPRP | 0.0405 |
| RRIRFRPPRLPRPRPRPDHMPRP | -0.585 |
| RRIRFRPPRLPRPRPRPDHTPRP | -0.318 |
| RRIRFRPPRLPRPRPRPDIFPRP | -0.396 |
| RRIRFRPPRLPRPRPRPDIKPRP | -0.602 |
| RRIRFRPPRLPRPRPRPDKDPRP | -0.393 |
| RRIRFRPPRLPRPRPRPDLIPRP | -0.0121 |
| RRIRFRPPRLPRPRPRPDMCPRP | 0.124 |
| RRIRFRPPRLPRPRPRPDMLPRP | -0.125 |
| RRIRFRPPRLPRPRPRPDMWPRP | -1.03 |
| RRIRFRPPRLPRPRPRPDNTPRP | -0.491 |
| RRIRFRPPRLPRPRPRPDPLPRP | 0.165 |
| RRIRFRPPRLPRPRPRPDPQPRP | 0.0361 |
| RRIRFRPPRLPRPRPRPDPVPRP | 0.227 |
| RRIRFRPPRLPRPRPRPDQMPRP | -0.155 |
| RRIRFRPPRLPRPRPRPDQYPRP | -0.169 |
| RRIRFRPPRLPRPRPRPDRCPRP | -0.208 |
| RRIRFRPPRLPRPRPRPDRWPRP | 0.0556 |
| RRIRFRPPRLPRPRPRPDRYPRP | -0.0446 |
| RRIRFRPPRLPRPRPRPDSGPRP | -0.0156 |
| RRIRFRPPRLPRPRPRPDVQPRP | -0.0115 |
| RRIRFRPPRLPRPRPRPDWCPRP | -0.00301 |
| RRIRFRPPRLPRPRPRPDWYPRP | -0.0899 |

| Sequence | shrunken log2 fold change |
| --- | --- |
| RRIRFRPPRLPRPRPRPEAGPRP | 0.806 |
| RRIRFRPPRLPRPRPRPECGPRP | 0.175 |
| RRIRFRPPRLPRPRPRPECWPRP | 0.675 |
| RRIRFRPPRLPRPRPRPEDNPRP | -0.00777 |
| RRIRFRPPRLPRPRPRPEEMPRP | -0.00182 |
| RRIRFRPPRLPRPRPRPEEVPRP | 0.0815 |
| RRIRFRPPRLPRPRPRPEFKPRP | -0.0568 |
| RRIRFRPPRLPRPRPRPEHCPRP | -0.0154 |
| RRIRFRPPRLPRPRPRPEHGPRP | 0.00151 |
| RRIRFRPPRLPRPRPRPEIAPRP | -0.0213 |
| RRIRFRPPRLPRPRPRPEIPPRP | 0.163 |
| RRIRFRPPRLPRPRPRPEKAPRP | 0.0584 |
| RRIRFRPPRLPRPRPRPEKTPRP | -0.00398 |
| RRIRFRPPRLPRPRPRPEKVPRP | -0.0394 |
| RRIRFRPPRLPRPRPRPEKWPRP | 0.109 |
| RRIRFRPPRLPRPRPRPELSPRP | 0.0455 |
| RRIRFRPPRLPRPRPRPEMHPRP | -0.195 |
| RRIRFRPPRLPRPRPRPENMPRP | -0.158 |
| RRIRFRPPRLPRPRPRPENTPRP | 0.003 |
| RRIRFRPPRLPRPRPRPENWPRP | 0.0986 |
| RRIRFRPPRLPRPRPRPEPRPRP | 0.81 |
| RRIRFRPPRLPRPRPRPEQKPRP | 0.341 |
| RRIRFRPPRLPRPRPRPEQRPRP | -0.0295 |
| RRIRFRPPRLPRPRPRPESFPRP | 0.0272 |
| RRIRFRPPRLPRPRPRPESGPRP | 0.0504 |

| Sequence | shrunken log2 fold change |
| --- | --- |
| RRIRFRPPRLPRPRPRPESKPRP | 0.183 |
| RRIRFRPPRLPRPRPRPESLPRP | 0.0896 |
| RRIRFRPPRLPRPRPRPESRPRP | 0.146 |
| RRIRFRPPRLPRPRPRPETAPRP | 0.577 |
| RRIRFRPPRLPRPRPRPETNPRP | 0.127 |
| RRIRFRPPRLPRPRPRPEVFPRP | 0.181 |
| RRIRFRPPRLPRPRPRPEVHPRP | -0.309 |
| RRIRFRPPRLPRPRPRPEYAPRP | -0.14 |
| RRIRFRPPRLPRPRPRPEYQPRP | -0.0212 |
| RRIRFRPPRLPRPRPRPFALPRP | -0.00558 |
| RRIRFRPPRLPRPRPRPFAYPRP | 0.0263 |
| RRIRFRPPRLPRPRPRPFCTPRP | -0.19 |
| RRIRFRPPRLPRPRPRPFDIPRP | -0.182 |
| RRIRFRPPRLPRPRPRPFDKPRP | 0.00679 |
| RRIRFRPPRLPRPRPRPFEPPRP | -0.0506 |
| RRIRFRPPRLPRPRPRPFGTPRP | -0.587 |
| RRIRFRPPRLPRPRPRPFHKPRP | -1.02 |
| RRIRFRPPRLPRPRPRPFICPRP | -0.65 |
| RRIRFRPPRLPRPRPRPFIPPRP | -0.823 |
| RRIRFRPPRLPRPRPRPFKRPRP | -0.813 |
| RRIRFRPPRLPRPRPRPFLPPRP | -0.208 |
| RRIRFRPPRLPRPRPRPFMWPRP | -0.168 |
| RRIRFRPPRLPRPRPRPFPRPRP | -0.0288 |
| RRIRFRPPRLPRPRPRPFRLPRP | -0.197 |
| RRIRFRPPRLPRPRPRPFSDPRP | -0.229 |

| Sequence | shrunken log2 fold change |
| --- | --- |
| RRIRFRPPRLPRPRPRPFSLPRP | -0.375 |
| RRIRFRPPRLPRPRPRPFSRPRP | 0.184 |
| RRIRFRPPRLPRPRPRPFTNPRP | -0.125 |
| RRIRFRPPRLPRPRPRPFVLPRP | -0.532 |
| RRIRFRPPRLPRPRPRPFVWPRP | -0.0869 |
| RRIRFRPPRLPRPRPRPFWLPRP | 0.0058 |
| RRIRFRPPRLPRPRPRPFWMPRP | -0.254 |
| RRIRFRPPRLPRPRPRPFWSPRP | -0.0458 |
| RRIRFRPPRLPRPRPRPFYHPRP | -0.727 |
| RRIRFRPPRLPRPRPRPGAHPRP | -0.126 |
| RRIRFRPPRLPRPRPRPGCAPRP | 1.03 |
| RRIRFRPPRLPRPRPRPGCIPRP | -0.241 |
| RRIRFRPPRLPRPRPRPGDQPRP | 0.0789 |
| RRIRFRPPRLPRPRPRPGDYPRP | -0.406 |
| RRIRFRPPRLPRPRPRPGEKPRP | 0.084 |
| RRIRFRPPRLPRPRPRPGERPRP | 0.266 |
| RRIRFRPPRLPRPRPRPGFRPRP | 0.0855 |
| RRIRFRPPRLPRPRPRPGGAPRP | 0.263 |
| RRIRFRPPRLPRPRPRPGHQPRP | -0.233 |
| RRIRFRPPRLPRPRPRPGKCPRP | -0.421 |
| RRIRFRPPRLPRPRPRPGKDPRP | -0.105 |
| RRIRFRPPRLPRPRPRPGKWPRP | -0.0163 |
| RRIRFRPPRLPRPRPRPGLCPRP | 0.606 |
| RRIRFRPPRLPRPRPRPGLIPRP | -0.0301 |
| RRIRFRPPRLPRPRPRPGMFPRP | 0.0382 |

| Sequence | shrunken log2 fold change |
| --- | --- |
| RRIRFRPPRLPRPRPRPGNHPRP | -0.0246 |
| RRIRFRPPRLPRPRPRPGNNPRP | -0.276 |
| RRIRFRPPRLPRPRPRPGNTPRP | -0.12 |
| RRIRFRPPRLPRPRPRPGNVPRP | 0.0145 |
| RRIRFRPPRLPRPRPRPGQEPRP | -0.0664 |
| RRIRFRPPRLPRPRPRPGQHPRP | 0.176 |
| RRIRFRPPRLPRPRPRPGQLPRP | -0.0429 |
| RRIRFRPPRLPRPRPRPGQRPRP | 0.686 |
| RRIRFRPPRLPRPRPRPGSFPRP | -0.0983 |
| RRIRFRPPRLPRPRPRPGSMPRP | -0.255 |
| RRIRFRPPRLPRPRPRPGTEPRP | 0.0589 |
| RRIRFRPPRLPRPRPRPGVFPRP | -0.227 |
| RRIRFRPPRLPRPRPRPGVKPRP | -0.0657 |
| RRIRFRPPRLPRPRPRPGVPPRP | 0.0248 |
| RRIRFRPPRLPRPRPRPGWEPRP | 0.0875 |
| RRIRFRPPRLPRPRPRPGWLPRP | 0.129 |
| RRIRFRPPRLPRPRPRPGWQPRP | 0.188 |
| RRIRFRPPRLPRPRPRPGYPPRP | 0.0384 |
| RRIRFRPPRLPRPRPRPHDKPRP | -0.00198 |
| RRIRFRPPRLPRPRPRPHDQPRP | 0.0225 |
| RRIRFRPPRLPRPRPRPHDTPRP | -0.535 |
| RRIRFRPPRLPRPRPRPHEKPRP | -0.0136 |
| RRIRFRPPRLPRPRPRPHGMPRP | -0.00197 |
| RRIRFRPPRLPRPRPRPHGRPRP | 0.187 |
| RRIRFRPPRLPRPRPRPHHLPRP | -1.06 |
